Measured values taken from publication PMC7305185, “Non-cooperative 4E-BP2 folding with exchange between eIF4E-binding and binding-incompatible states tunes cap-dependent translation inhibition” (Nature Communications, 2020).

Biological target: T1, eukaryotic translation initiation factor 4E (eIF4E) (UniProt P06730 1-217)
T1 construct: eukaryotic translation initiation factor 4E; Expressed from a pET SUMO vector; The SUMO tag was cleaved with Ulp1 and removed on Ni-NTA; source: E. coli BL21-CodonPlus (DE3)-RIPL, purified (Ni-NTA, S75 gel filtration)
Assay: ITC; MicroCal ITC200; data collection as detailed in ref. 11; KD as mean and standard deviation of repeat samples (n = 3 for 5p-4E-BP2, n = 2 or 1 for the other variants)
Settings: both partners purified

T1 sequence (P06730 whole entry): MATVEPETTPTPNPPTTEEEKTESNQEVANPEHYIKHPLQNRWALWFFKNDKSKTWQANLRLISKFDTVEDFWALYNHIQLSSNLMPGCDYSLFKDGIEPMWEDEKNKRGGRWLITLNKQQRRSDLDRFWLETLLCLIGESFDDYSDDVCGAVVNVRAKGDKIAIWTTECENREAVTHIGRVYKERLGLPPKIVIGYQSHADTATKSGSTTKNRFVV

B1: five-phospho 4E-BP2 (pT37/pT46/pS65/pT70/pS83) (natural protein, UniProt Q13542 1-120, looked up)
chain: MSSSAGSGHQPSQSRAIPTRTVAISDAAQLPHDYCTTPGGTLFSTTPGGTRIIYDRKFLLDRRNSPMAQTPPCHLPNIPGVTSPGTLIEDSKVEVNNLNNLNNHDRKHAVGDDAQFEMDI
modifications: phosphothreonine at 37, 46 and 70; phosphoserine at 65 and 83
notes: also called 5p-4E-BP2; WT 5p-4E-BP2; source: E. coli BL21-CodonPlus (DE3)-RIPL, purified (Ni-NTA, S75 gel filtration); phosphorylated with Erk2, purified again by gel filtration
Q: B1 was tested. Which Kd did it give?
A: Its Kd is 15 µM.
